The results in this text go back to PMC6401464 (Journal of Virology, 2019).

Data set [1] deals with T1, GI.1 P domain (Norwalk virus) (Norwalk virus (human norovirus GI.1), UniProt Q83884).
T1 construct: also called GI.1 capsid-protruding (P) domain; GI P domain
In words: ELISA; direct ELISA; P domain or VLPs coated on MaxiSorp plates, serially diluted Nanobodies (1:1 in PBS, starting at 100 μg/ml) for 1 h at 37°C, detected with HRP-conjugated anti-polyhistidine antibody; cutoff OD490 0.15. Conditions: both partners purified.

Data set [2] addresses T1, GI.1 P domain (Norwalk virus). As to the kind of experiment: ITC; Nano-94 (150 μM) injected in 2 μl aliquots into GI.1 P domain (15 μM), PBS, 25°C, one-site binding model. The following applies: both partners purified. (In general: In ITC the heat of successive injections is recorded.)
The target is the same in data set [3]. In words: ITC; Nano-7 (150 μM) injected in 0.5 μl aliquots into GI.1 P domain (15 μM), PBS, 35°C, one-site binding model. The following applies: both partners purified.
For data set [4] the target is unchanged. As to the kind of experiment: ITC; Nano-62 (150 μM) injected in 2 μl aliquots into GI.1 P domain (15 μM), PBS, 30°C, one-site binding model. The following applies: both partners purified.
The data set “crystal structure” deals with the molecule itself. In words: crystal structure.

B1: Nano-94 (VHH)
VHH: QVQLQESGGGLVQAGGSLRLSCAASGRMFSINSMGWYRQAPGKERELVATISEAGTTTYADSVRGRFTIARDNAKNTVYLQMNSLNPEDTAVYYCNAYIQLDSTIWFRAYWGQGTQVTVSS
notes: also called Nanobody 94
As usually defined, the Kd is the free concentration of one partner at which half of the binding sites on the other are occupied at equilibrium, for simple one-to-one binding. Read a low Kd as tighter binding. For orientation: stoichiometry N means a count of units in the complex or per binding partner. Consider B1, for which the “detection level (ELISA, cutoff OD490 0.15)” value (from here on “detection level”) in data set [1] amounted to 0.1 µg/mL. Moreover, in data set [2], the Kd stood at 43.4 nM and the “stoichiometry N” value is around 1.

B2: Nano-7 (VHH)
VHH: QVQLQESGGGLVQAGGSLRLSCAVSGRTFSNYYSGWFRQAPGKEREFLASIRWSDSTTNYADSVKGRFTISRDTAKNTVYLQMNSLKLEDTAVYHCAARRLATYDYWGQGTQVTVSS
notes: also called Nanobody 7
B2: the “detection level” value in data set [1] was found to be 0.2 µg/mL. Moreover, in data set [3], the Kd is 0.163 nM and the “stoichiometry N” value was around 1.

B3: Nano-62 (VHH)
VHH: QVQLQESGGGLVMTGGSLRLSCAVSGRTIDVSVMAWFRQAPGKEREFVSGMRWSGMTTYSADSVKDRFTISRDKTKNTVYLQMNSLKPEDTAVYYCAARSRFIVGVPQARDLYDYWGQGTQVTVSS
notes: also called Nanobody 62
Consider B3, for which the “detection level” value in data set [1] was 0.1 µg/mL. In addition, in data set [4], the dissociation constant (Kd) was 4.58 nM and the “stoichiometry N” value was around 1.

B4: GI.1 P domain (Norwalk virus) (domain or fragment)
chain: EQKTRPFTLPNLPLSSLSNSRAPLPISSMGISPDNVQSVQFQNGRCTLDGRLVGTTPVSLSHVAKIRGTSNGTVINLTELDGTPFHPFEGPAPIGFPDLGGCDWHINMTQFGHSSQTQYDVDTTPDTFVPHLGSIQANGIGSGNYVGVLSWISPPSHPSGSQVDLWKIPNYGSSITEATHLAPSVYPPGFGEVLVFFMSKMPGPGAYNLPCLLPQEYISHLASEQAPTVGEAALLHYVDPDTGRNLGEFKAYPDGFLTCVPNGASSGPQQLPINGVFVFVSWVSRFYQLKPVGT
notes: also called GI.1 capsid-protruding (P) domain; GI P domain
B4: the binding result in the data set “crystal structure” was “binds”.
